Reference: publication PMC2880918

What was measured:
[1] = target: Nucleosome Assembly Protein 1 (Nap1) (UniProt P25293); assay: FRET or BRET
[2] = target: H2A–H2B dimer (Xenopus laevis) (UniProt P06897); assay: FRET or BRET

Substance	Kd [1]	Kd [2]
(H3K56ac-H4)2 tetramer (from UniProt P62799 1-103) (complex)	0.011 µM	–
tetrasome with the fluorescent label on H4 (from UniProt P62799 1-103) (complex)	–	0.035 µM
